Assay [1] has as its target T1, rHuman CD44/Fc Chimera, CF (R&D Systems Cat#3660-CD) (human, UniProt P16070 21-220).
T1 construct: Purchased Fc chimera; not shown: Fc portion of the purchased chimera
Put plainly: MSD ECL multi-spot plate, antigen immobilized; Fab 0.32 nM; blank spot 513.

Assay [2] has as its target T2, rHuman IGF-1 sR (IGF-1 sR), CF (R&D Systems Cat#391-GR) (human, UniProt P08069 31-932).
T2 construct: Purchased soluble receptor; also called insulin-like growth factor-1 soluble receptor; IGF-R1
The description is as above.

For assay [3], the target named is T3, rHuman P-Cadherin/Fc Chimera, CF (R&D Systems Cat#861-PC) (human, UniProt P22223 108-654).
T3 construct: Purchased Fc chimera; not shown: Fc portion of the purchased chimera
Described as above.

Assay [4] has as its target T4, rHuman CD44/Fc Chimera, CF (R&D Systems Cat#3660-CD) (human, UniProt P16070 21-220).
T4 construct: Bought reagent; Fc part of the bought chimera not given
Nature of the assay: ECL (MSD multi-spot), antigen spotted on plate; Fab 352.5 nM; blank spot 494.

The target of assay [5] is T5, rHuman P-Cadherin/Fc Chimera, CF (R&D Systems Cat#861-PC) (human, UniProt P22223 108-654).
T5 construct: Bought reagent; also called CDH3; Fc part of the bought chimera not given
The description is as above.

Assay [6] deals with T6, rHuman Notch-1/Fc Chimera, CF (R&D Systems Cat#3647-TK) (human, UniProt P46531 19-526).
T6 construct: Bought reagent; Fc part of the bought chimera not given
The assay is described as above.

In assay [7] the target is T7, rHuman Erythropoietin R/Fc Chimera, CF (R&D Systems Cat#963-ER) (human, UniProt P19235 25-250).
T7 construct: Bought reagent; also called EPO R/Fc; Epo R; Fc part of the bought chimera not given
T7 sequence: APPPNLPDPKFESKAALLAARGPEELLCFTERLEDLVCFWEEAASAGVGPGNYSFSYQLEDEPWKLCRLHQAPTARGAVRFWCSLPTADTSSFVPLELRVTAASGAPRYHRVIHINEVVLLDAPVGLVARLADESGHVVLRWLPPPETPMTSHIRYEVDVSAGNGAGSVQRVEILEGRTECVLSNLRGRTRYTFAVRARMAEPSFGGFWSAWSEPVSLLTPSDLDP
The description is as above.

Assay [8] addresses T8, Recombinant Human DLL4 (R&D Systems Cat#1506-D4/CF) (human, UniProt Q9NR61 27-524).
T8 construct: Bought reagent; also called delta-like protein 4
The assay is described as above.

Assay [9] deals with T9, rHuman EGF R/Fc Chimera, CF (R&D Systems Cat#344-ER) (human, UniProt P00533 25-645).
T9 construct: Bought reagent; also called epidermal growth factor receptor; Fc part of the bought chimera not given
Described as above.

Assay [10] has as its target T10, rHuman IGF-1 sR (IGF-1 sR), CF (R&D Systems Cat#391-GR) (human, UniProt P08069 31-932).
T10 construct: Bought soluble receptor; also called insulin-like growth factor-1 soluble receptor; IGF-R1
The assay is described as above.

Assay [11] has as its target T11, rHuman Erythropoietin R/Fc Chimera, CF (R&D Systems Cat#963-ER) (human, UniProt P19235 25-250).
T11 construct: Bought Fc chimera; also called EPO R/Fc; EPOR; Fc part of the bought chimera not given
T11 sequence: T7 sequence
Nature of the assay: MSD ECL titration, Fab 37.2 nM, blank 199.

The target of assay [12] is T12, rHuman ErbB2/Fc Chimera, CF (R&D Systems Cat#1129-ER) (human, UniProt P04626 23-652).
T12 construct: Bought Fc chimera; also called HER2/neu; Fc part of the bought chimera not given
Put plainly: MSD ECL titration, Fab 37.2 nM, blank 199.

In assay [13] the target is T13, rHuman CD44/Fc Chimera, CF (R&D Systems Cat#3660-CD) (human, UniProt P16070 21-220).
T13 construct: Bought Fc chimera; Fc part of the bought chimera not given
Nature of the assay: MSD ECL titration, Fab 37.2 nM, blank 199.

Assay [14] deals with T14, rHuman IGF-1 sR (insulin-like growth factor-1 soluble receptor), CF (R&D Systems Cat#391-GR) (human, UniProt P08069 31-932).
T14 construct: Bought soluble receptor; also called IGF-R1
Put plainly: MSD ECL titration, Fab 37.2 nM, blank 199.

For assay [15], the target named is T15, rHuman Notch-1/Fc Chimera, CF (R&D Systems Cat#3647-TK) (human, UniProt P46531 19-526).
T15 construct: Bought Fc chimera; Fc part of the bought chimera not given
Put plainly: MSD ECL titration, Fab 37.2 nM, blank 199.

The target of assay [16] is T16, rHuman HGF R/c-MET/Fc Chimera, CF (R&D Systems Cat#358-MT/CF) (human, UniProt P08581 25-932).
T16 construct: Bought Fc chimera; also called HGF R/Fc; Fc part of the bought chimera not given
Nature of the assay: MSD ECL titration, Fab 37.2 nM, blank 199.

For assay [17], the target named is T17, Recombinant Human DLL4 (R&D Systems Cat#1506-D4/CF) (human, UniProt Q9NR61 27-524).
T17 construct: Bought recombinant protein; also called rHuman DLL4; delta-like protein 4
Put plainly: MSD ECL titration, Fab 37.2 nM, blank 199.

For assay [18], the target named is T18, rHuman P-Cadherin/Fc Chimera, CF (R&D Systems Cat#861-PC) (human, UniProt P22223 108-654).
T18 construct: Bought Fc chimera; Fc part of the bought chimera not given
Put plainly: MSD ECL titration, Fab 37.2 nM, blank 199.

The target of assay [19] is T19, rHuman EGF R/Fc Chimera, CF (R&D Systems Cat#344-ER) (human, UniProt P00533 25-645).
T19 construct: Bought Fc chimera; Fc part of the bought chimera not given
Nature of the assay: MSD ECL titration, Fab 37.2 nM, blank 199.
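Also: blank spot per well as comparator with Hit at signal to blank ratio of 4 or more.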

B1: Fab VH5-51_IGHD5-18*01>3_IGHJ4*01_G100R & V3-4_IGLJ1*01 (Fab, V domains shown)
VH: EVQLVQSGAEVKKPGESLKISCKGSGYSFTSYWIGWVRQMPGKGLEWMGIIYPGDSDTRYSPSFQGQVTISADKSISTAYLQWSSLKASDTAMYYCARRRYSYGYDYFDYWGQGTLVTVSS
VL: QTVVTQEPSFSVSPGGTVTLTCGLSSGSVSTSYYPSWYQQTPGQAPRTLIYSTNTRSSGVPDRFSGSILGNKAALTITGAQADDESDYYCVLYMGSGISYVFGTGTKVTVL
notes: It was expressed as a Fab: CH1 with tags from Plasmid A and lambda CL from Plasmid E; also called Fab No. 23
On to B1, for which the ECL signal was 877 ECL signal in [1], 1250 ECL signal in assay [2] and 656 ECL signal in assay [3].

B2: Fab VH1-46_IGHD3-10*01_IGHJ4*01 & B3_IGKJ1*01 (Fab, V domains shown)
VH: QVQLVQSGAEVKKPGASVKVSCKASGYTFTSYYMHWVRQAPGQGLEWMGIINPSGGSTSYAQKFQGRVTMTRDTSTSTVYMELSSLRSEDTAVYYCAREYYYGSGSYYNDYFDYWGQGTLVTVSS
VL: not shown
notes: also called IGHV1-46*01
As to B2, the ECL signal was 556 in assay [4]; 649 in [5]; 715 in [6]; 4100 in [7]; 660 in assay [8]; 769 in [9]. The ECL signal in [10] turned out to be 528.

B3: Fab VH1-46_IGHD6-6*01_IGHJ1*01 & L6_IGKJ1*01 (Fab, V domains shown)
VH: QVQLVQSGAEVKKPGASVKVSCKASGYTFTSYYMHWVRQAPGQGLEWMGIINPSGGSTSYAQKFQGRVTMTRDTSTSTVYMELSSLRSEDTAVYYCAREEYSSSSAEYFQHWGQGTLVTVSS
VL: not shown
notes: Expressed in E. coli as Fab: heavy chain with CH1 plus Flag and His tags from Plasmid A, kappa light chain constant region from Plasmid C; also called Fab No. 1
B3: the ECL signal stood at 315 in assay [11]; 384 in assay [12]; 356 in assay [13]; 295 in assay [14]; 402 in [15]; 207 in assay [16]. Besides, the ECL signal amounted to 16700 in assay [17], 649 in assay [18] and 228 in [19].

The record behind these values is US20120058906A1 (published 2012).
